Measured values: patent publication US20100135997A1

target: Class I pMHC on target cells (Mel 624); test: cell-based or functional assay

IC50 of inhibition of T cell activation (IFN-γ ELISPOT; Mel 624 target cells, MART-1 specific T cell clone)	Binder
0.4 nM	c138 Fc dimer (polypeptide homodimer Fc fusion) (Fc fusion) HLPKPTLWAEPGSVITMDQPVTLRCQGGQETQQYRLYREKKTAPWITRIPQELVKKGQFPIPSITWEHAGRYRCYYGSDTRQWSASSDPLELVVTGVYIKPTLSAQPSPVVNSGGNVTLQCDSPFQADGFILCKEGEDDHPQCLNSQPHARGSSRAIFSVGPVSPSRRWRYRCYAYDSNSPYEWSLPSDLLELDVDGRMDPSRSVECPPCPAPPVAGPSVFLFPPKPKDTLMISRTPEVTCVVVDVSHEDPEVKFNWYVDGVEVHNAKTKPREEQYNSTYRVVSVLTVLHQDWLNGKEYKCKVSNKGLPSSIEKTISKAKGQPREPQVYTLPPSREEMTKNQVSLTCLVKGFYPSDIAVEWESNGQPENNYKTTPPVLDSDGSFFLYSKLTVDKSRWQQGNVFSCSVMHEGLHNHYTQKSLSLSPGK
2.3 nM	c64 Fc dimer (ILT Fc fusion homodimer) (Fc fusion) HLPKPTLWAEPGSVITMDQPVTLRCQGGQETQQYRLYREKKTAPWITRIPQELVKKGQFPIPSITWEHAGRYRCYYGSDTRQWSASSDPLELVVTGVYIKPTLSAQPSPVVNSGGNVTLQCDSQVAFDGFILCKEGEDDHPQCLNSQPHARGSSRAIFSVGPVSPSRRWRYRCYAYDSNSPYEWSLPSDLLELDVDGRMDPSRSVECPPCPAPPVAGPSVFLFPPKPKDTLMISRTPEVTCVVVDVSHEDPEVKFNWYVDGVEVHNAKTKPREEQYNSTYRVVSVLTVLHQDWLNGKEYKCKVSNKGLPSSIEKTISKAKGQPREPQVYTLPPSREEMTKNQVSLTCLVKGFYPSDIAVEWESNGQPENNYKTTPPVLDSDGSFFLYSKLTVDKSRWQQGNVFSCSVMHEGLHNHYTQKSLSLSPGK
0.45 nM	c132 Fc dimer (ILT Fc fusion homodimer) (Fc fusion) HLPKPTLWAEPGSVITMDQPVTLRCQGGQETQEYRLYREKKTAPWITRIPQELVKKGQFPIPSITWEHAGRYRCYYGSDTSQWSASSDPLELVVTGVYIKPTLSAQPSPVVNSGGNVTLQCDSPFQADGFILCKEGEDEHPQCLNSQPHARGSSRAIFSVGPVSPSRRWWYRCYAYMSWSPYEWSLPSDLLELDVDGRMDPSRSVECPPCPAPPVAGPSVFLFPPKPKDTLMISRTPEVTCVVVDVSHEDPEVKFNWYVDGVEVHNAKTKPREEQYNSTYRVVSVLTVLHQDWLNGKEYKCKVSNKGLPSSIEKTISKAKGQPREPQVYTLPPSREEMTKNQVSLTCLVKGFYPSDIAVEWESNGQPENNYKTTPPVLDSDGSFFLYSKLTVDKSRWQQGNVFSCSVMHEGLHNHYTQKSLSLSPGK
